Experimental data from patent KR20190026632A (dated 2019).

T1: His-AIMP1 (UniProt Q12904 1-312, limits assumed)
T1 construct: not shown: His tag
T1 sequence (looked up): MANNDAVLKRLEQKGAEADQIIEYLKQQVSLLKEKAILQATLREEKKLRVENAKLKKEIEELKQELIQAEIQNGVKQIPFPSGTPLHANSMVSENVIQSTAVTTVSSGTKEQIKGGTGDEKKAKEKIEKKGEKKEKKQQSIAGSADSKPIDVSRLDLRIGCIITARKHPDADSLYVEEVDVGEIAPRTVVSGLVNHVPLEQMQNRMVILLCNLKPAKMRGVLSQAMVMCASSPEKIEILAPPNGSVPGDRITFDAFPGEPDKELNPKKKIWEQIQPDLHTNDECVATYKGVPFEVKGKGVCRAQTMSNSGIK

T2: His-WRS (UniProt P23381 1-471, limits assumed)
T2 construct: not shown: His tag
T2 sequence (looked up): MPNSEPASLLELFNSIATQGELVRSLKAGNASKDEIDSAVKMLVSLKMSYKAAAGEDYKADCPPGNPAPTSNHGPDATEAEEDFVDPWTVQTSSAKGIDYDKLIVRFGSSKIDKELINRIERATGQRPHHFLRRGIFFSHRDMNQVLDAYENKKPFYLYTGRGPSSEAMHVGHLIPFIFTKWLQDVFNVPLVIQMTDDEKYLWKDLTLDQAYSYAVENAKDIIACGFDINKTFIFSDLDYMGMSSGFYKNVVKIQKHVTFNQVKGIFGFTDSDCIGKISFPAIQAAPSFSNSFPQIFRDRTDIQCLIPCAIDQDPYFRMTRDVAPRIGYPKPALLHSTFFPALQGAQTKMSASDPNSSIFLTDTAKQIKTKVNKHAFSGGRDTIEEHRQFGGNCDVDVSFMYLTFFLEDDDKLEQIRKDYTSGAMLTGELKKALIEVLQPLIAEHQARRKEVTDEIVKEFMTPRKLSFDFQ

T3: His-GRS (UniProt P41250 55-739)
T3 construct: not shown: His tag
T3 sequence (looked up): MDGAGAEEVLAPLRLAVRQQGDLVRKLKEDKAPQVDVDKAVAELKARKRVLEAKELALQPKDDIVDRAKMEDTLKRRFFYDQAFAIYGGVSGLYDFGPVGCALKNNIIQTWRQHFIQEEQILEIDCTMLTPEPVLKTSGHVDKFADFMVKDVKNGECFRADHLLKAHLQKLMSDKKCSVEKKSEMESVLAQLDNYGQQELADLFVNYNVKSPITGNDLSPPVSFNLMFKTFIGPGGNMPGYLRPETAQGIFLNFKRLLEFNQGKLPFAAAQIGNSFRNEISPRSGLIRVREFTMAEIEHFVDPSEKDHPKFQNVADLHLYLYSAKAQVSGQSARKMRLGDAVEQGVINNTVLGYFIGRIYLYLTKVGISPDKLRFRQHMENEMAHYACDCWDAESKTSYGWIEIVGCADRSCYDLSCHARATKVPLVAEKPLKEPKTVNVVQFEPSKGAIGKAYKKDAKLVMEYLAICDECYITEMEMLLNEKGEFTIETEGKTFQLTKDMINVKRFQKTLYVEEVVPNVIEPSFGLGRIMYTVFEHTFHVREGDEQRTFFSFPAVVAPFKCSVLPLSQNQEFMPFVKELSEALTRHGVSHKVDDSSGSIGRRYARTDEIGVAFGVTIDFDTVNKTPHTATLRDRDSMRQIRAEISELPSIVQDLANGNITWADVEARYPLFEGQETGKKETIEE

T4: His-CRS (UniProt P49589 1-748)
T4 construct: not shown: His tag
T4 sequence (looked up): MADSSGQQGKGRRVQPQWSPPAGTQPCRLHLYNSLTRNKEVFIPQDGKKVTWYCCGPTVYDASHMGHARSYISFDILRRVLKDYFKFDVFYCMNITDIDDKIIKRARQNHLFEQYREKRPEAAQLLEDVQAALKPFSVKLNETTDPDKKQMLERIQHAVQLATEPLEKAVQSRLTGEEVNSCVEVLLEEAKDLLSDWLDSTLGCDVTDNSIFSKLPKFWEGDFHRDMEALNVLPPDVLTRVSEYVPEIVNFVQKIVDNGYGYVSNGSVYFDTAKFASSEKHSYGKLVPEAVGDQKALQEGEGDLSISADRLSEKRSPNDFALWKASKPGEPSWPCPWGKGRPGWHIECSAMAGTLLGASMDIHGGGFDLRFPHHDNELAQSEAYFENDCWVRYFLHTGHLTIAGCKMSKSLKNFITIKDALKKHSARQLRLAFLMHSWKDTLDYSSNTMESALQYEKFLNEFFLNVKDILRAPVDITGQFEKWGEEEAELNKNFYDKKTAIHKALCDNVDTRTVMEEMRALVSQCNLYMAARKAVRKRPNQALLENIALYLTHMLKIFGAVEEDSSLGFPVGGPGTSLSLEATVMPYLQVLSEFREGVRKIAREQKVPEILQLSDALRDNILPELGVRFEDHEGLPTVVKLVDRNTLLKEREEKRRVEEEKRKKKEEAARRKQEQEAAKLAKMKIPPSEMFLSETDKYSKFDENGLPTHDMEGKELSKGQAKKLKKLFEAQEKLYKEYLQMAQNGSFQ

T5: 34S-AIMP2 (UniProt Q13155 1-320)
T5 sequence (looked up): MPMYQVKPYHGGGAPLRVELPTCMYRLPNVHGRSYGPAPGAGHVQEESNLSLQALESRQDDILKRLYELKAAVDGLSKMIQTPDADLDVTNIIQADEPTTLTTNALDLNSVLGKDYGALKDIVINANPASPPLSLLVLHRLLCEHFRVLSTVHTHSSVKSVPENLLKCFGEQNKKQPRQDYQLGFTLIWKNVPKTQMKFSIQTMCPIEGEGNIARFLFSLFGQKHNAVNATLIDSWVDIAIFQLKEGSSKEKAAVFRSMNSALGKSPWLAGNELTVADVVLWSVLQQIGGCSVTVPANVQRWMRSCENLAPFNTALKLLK

T6: AIMP3 (Aminoacyl tRNA synthetase complex-interacting multifunctional protein 3) (Homo sapiens (Human), UniProt O43324 1-174, limits assumed)
T6 construct: also called AIMP3 단백질
T6 sequence: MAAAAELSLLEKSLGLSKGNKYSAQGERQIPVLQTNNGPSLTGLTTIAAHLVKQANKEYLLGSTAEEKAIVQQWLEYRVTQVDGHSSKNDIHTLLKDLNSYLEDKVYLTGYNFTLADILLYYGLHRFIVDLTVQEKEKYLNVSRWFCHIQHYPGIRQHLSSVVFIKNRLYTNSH

T7: 메티오닐 티알엔에이 합성효소 (methionyl-tRNA synthetase, MRS) (human, UniProt P56192 1-900)
T7 construct: Full-length protein; In the cross-reactivity ELISA two preparations were coated (His-MRS, MRS full) and the result is told only for 'MRS'; In the western blots and cell staining it is the endogenous MRS of H460, PANC-1 and SCK cells; In SPR it was on the chip as MRS+AIMP3 co-purified protein; also called His-MRS; MRS full
T7 sequence: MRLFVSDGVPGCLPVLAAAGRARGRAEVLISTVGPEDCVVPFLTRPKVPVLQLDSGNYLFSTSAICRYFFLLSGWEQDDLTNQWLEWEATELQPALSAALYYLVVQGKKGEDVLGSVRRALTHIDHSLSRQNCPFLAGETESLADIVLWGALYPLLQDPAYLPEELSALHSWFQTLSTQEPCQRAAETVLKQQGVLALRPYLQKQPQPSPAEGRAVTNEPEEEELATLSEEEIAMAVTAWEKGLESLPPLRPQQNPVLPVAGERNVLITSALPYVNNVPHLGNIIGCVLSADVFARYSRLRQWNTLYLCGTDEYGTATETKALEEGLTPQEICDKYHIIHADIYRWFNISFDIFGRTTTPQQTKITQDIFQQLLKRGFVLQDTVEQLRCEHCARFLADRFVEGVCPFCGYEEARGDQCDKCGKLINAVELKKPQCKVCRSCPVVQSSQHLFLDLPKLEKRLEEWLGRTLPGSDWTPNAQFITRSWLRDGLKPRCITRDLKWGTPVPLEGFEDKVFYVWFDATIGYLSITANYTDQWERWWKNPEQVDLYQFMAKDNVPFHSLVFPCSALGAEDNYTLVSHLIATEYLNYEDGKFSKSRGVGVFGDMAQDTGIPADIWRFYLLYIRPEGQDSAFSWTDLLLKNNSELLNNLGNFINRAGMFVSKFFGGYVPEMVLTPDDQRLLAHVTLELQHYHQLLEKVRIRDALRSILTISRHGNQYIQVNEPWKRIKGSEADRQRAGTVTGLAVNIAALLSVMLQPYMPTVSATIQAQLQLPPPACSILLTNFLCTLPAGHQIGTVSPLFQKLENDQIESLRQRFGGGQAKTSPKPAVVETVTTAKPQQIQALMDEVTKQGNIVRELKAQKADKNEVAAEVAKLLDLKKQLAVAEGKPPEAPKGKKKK

B1: 8A12 항체 (anti-MRS monoclonal antibody 8A12) (antibody, mouse IgG2a, kappa, V domains shown)
VH: DVKLQESGPGLVKPSQSLSLTCTVTGYSITSEYAWTWIRQFPGNKLEWMGYINYNGNTNLNPSLKSRISIIRDTSKNQFFLQLNSVTTEDTATYYCARSLWPRGWFAYWGQGTLVTVSA
VL: DIQMTQSPSSMYASLGERVTITCKASQDINSYLSWFQQKPGKSPKTLMYRANRLVDGVPSRFSGSGSGQDYSLTISSLEYEDMGIYYCLQYDEFPRTFGGGTKLEIKA
notes: Mouse monoclonal from hybridoma 8A12 (also named 34-8F2); also called 8A12 IgG; 8A12 antibody
B2: 1E8 항체 (anti-MRS monoclonal antibody 1E8) (antibody, mouse IgG2a, kappa, V domains shown)
VH: DVKLQESGPGLVNPSQSLSLTCTVTGYSITSDYAWNWIRQFPGNKLEWMGYISYSGRTSYKSSLKSRISITRDTSKNQFFLELNSVTTEDTATYYCARDYGNFVGYFDVWGAGTTVTVSS
VL: DIVMTQSPSSLAVSVGEKVTMSCKSSQSLLYSSNQKNYLAWYQQKPGQSPKLLIYWASTRESGVPDRFTGSGSGTEFTLTISSVKAEDLAVYYCQQYYSYPTFGGGTKLEIKA
notes: Mouse monoclonal from hybridoma 1E8 (immunogen MRS-AIMP3 co-purified protein); also called 1E8 IgG; 1E8 antibody

How the values were obtained:
His-AIMP1 = biological target: T1, His-AIMP1; experiment: ELISA; protein coated at 1 μg/ml, OD 450 nm
His-WRS = biological target: T2, His-WRS; experiment: ELISA; protein coated at 1 μg/ml, OD 450 nm
His-KRS = biological target: T8, His-KRS (UniProt Q15046 1-597); experiment: ELISA; protein coated at 1 μg/ml, OD 450 nm
T8 construct: not shown: His tag

His-GRS = biological target: T3, His-GRS; experiment: ELISA; protein coated at 1 μg/ml, OD 450 nm
His-CRS = biological target: T4, His-CRS; experiment: ELISA; protein coated at 1 μg/ml, OD 450 nm
34S-AIMP2 = biological target: T5, 34S-AIMP2; experiment: ELISA; protein coated at 1 μg/ml, OD 450 nm
[1] = biological target: T6, AIMP3 (Aminoacyl tRNA synthetase …); experiment: SPR; AIMP3 on CM5 chip, antibody flowed at various concentrations
[2] = biological target: T7, 메티오닐 티알엔에이 합성효소 (methionyl-tRNA …); experiment: SPR; MRS+AIMP3 co-purified protein on CM5 chip, antibody flowed at various concentrations

T8 sequence (Q15046 whole entry): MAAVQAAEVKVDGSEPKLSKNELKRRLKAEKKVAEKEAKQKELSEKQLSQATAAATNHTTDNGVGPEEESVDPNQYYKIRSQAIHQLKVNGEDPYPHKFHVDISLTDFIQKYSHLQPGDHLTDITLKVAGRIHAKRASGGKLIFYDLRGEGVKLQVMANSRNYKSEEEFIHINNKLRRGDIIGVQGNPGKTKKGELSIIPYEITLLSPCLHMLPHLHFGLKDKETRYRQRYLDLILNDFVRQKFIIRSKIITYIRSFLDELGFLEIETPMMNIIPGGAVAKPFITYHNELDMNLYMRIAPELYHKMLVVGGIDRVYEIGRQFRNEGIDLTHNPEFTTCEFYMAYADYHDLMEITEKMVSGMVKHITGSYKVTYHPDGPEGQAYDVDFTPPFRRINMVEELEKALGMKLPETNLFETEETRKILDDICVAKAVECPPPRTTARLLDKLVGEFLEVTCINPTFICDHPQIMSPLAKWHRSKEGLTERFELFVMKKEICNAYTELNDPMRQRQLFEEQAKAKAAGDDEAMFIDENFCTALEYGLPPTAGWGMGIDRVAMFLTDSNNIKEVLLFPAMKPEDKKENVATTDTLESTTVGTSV

| Binder | binding result (His-AIMP1) | binding result (His-WRS) | binding result (His-KRS) | binding result (His-GRS) | binding result (His-CRS) | binding result (34S-AIMP2) | binding result [1] | Kd [2] |
| --- | --- | --- | --- | --- | --- | --- | --- | --- |
| B1 | no binding (tested: 500 ng/ml) | no binding (tested: 500 ng/ml) | no binding (tested: 500 ng/ml) | no binding (tested: 500 ng/ml) | no binding (tested: 500 ng/ml) | no binding (tested: 500 ng/ml) | no binding | 1.56 nM |
| B2 | no binding (tested: 500 ng/ml) | no binding (tested: 500 ng/ml) | no binding (tested: 500 ng/ml) | no binding (tested: 500 ng/ml) | no binding (tested: 500 ng/ml) | no binding (tested: 500 ng/ml) | no binding | 5.42 nM |
